For one substance, stoichiometry N results are on record in PMC6712498.

The assay has as its target Gaussia princeps luciferase (Gluc)-LiDps fusion protein (Gaussia princeps | Listeria innocua). Nature of the assay: native gel or EMSA + other: TEM; purified refolded Gluc-LiDps; native gel with HuAFn and LiDps as molecular weight markers, and morphological characterization by TEM.

As for “Gaussia princeps luciferase (Gluc)-LiDps fusion protein”, the stoichiometry N was found to be 12 subunits.
